The record followed here is patent US20140178561.

Experiment in all cases: cell_activity
Conditions in all cases: pair value

Data set [1] relates to VInv_T03 TALE-nuclease right monomer (synthetic construct).
Data set [2] relates to VInv_T02 TALE-nuclease right monomer (synthetic construct).
Data set [3] relates to VInv_T01 TALE-nuclease right monomer (synthetic construct).
Data set [4] has as its system VInv_T03 TALE-nuclease left monomer (synthetic construct).
For data set [5], the system named is VInv_T01 TALE-nuclease left monomer (synthetic construct).
The subject of data set [6] is VInv_T02 TALE-nuclease left monomer (synthetic construct).
[7] abbreviates: S. tuberosum protoplasts, text p49 gives range up to 9.5%.
The mark [8] stands for this setting: yeast beta-galactosidase assay 37 C, 0.82 at 30 C.
The mark [9] stands for this setting: S. tuberosum protoplasts, endogenous locus.
The mark [10] stands for this setting: yeast beta-galactosidase assay 37 C, 0.89 at 30 C.
[11] abbreviates: yeast beta-galactosidase assay 37 C, 0.95 at 30 C.

Regarding “CCGGACTTGCAGAGTAA (double strand) [VInv_T3 right half-site]”, the activity in data set [1] (setting [7]) worked out at 9.9 % NHEJ. Moreover, the activity (relative to I-SceI) in data set [1] (setting [8]) stood at 0.96.

“CTTCTTTCCGATCCTCA (double strand) [VInv_T2 right half-site]” yielded an activity in data set [2] (setting [9]) of 9.5 % NHEJ. The sequence also returned an activity (relative to I-SceI) in data set [2] (setting [10]) of 0.92.

Regarding “GAAGTCCCTTAAAATCA (double strand) [VInv_T1 right half-site]”, the activity in data set [3] (setting [9]) was 3.6 % NHEJ. Also, the activity (relative to I-SceI) in data set [3] (setting [11]) is 0.94.

In data set [4] (setting [7]), “TAGCCTTCTTTCCGATC (double strand) [VInv_T3 left half-site]” gave an activity of 9.9 % NHEJ. The activity (relative to I-SceI) in data set [4] (setting [8]) stood at 0.96.

“TTCCTCCCGGATCAACC (double strand) [VInv_T1 left half-site]” came in with an activity in data set [5] (setting [9]) of 3.6 % NHEJ. This sequence also yielded an activity (relative to I-SceI) in data set [5] (setting [11]) of 0.94.

For “TTCCTCTCCTCTTTCCT (double strand) [VInv_T2 left half-site]”, in data set [6] (setting [9]), the activity was 9.5 % NHEJ. In data set [6] (setting [10]), this sequence showed an activity (relative to I-SceI) of 0.92.
